Square brackets hold non-standard residues; d marks the D form. Tic = O=C(O)[C@@H]1Cc2ccccc2CN1; Dab = NCC[C@H](N)C(=O)O; Aib = CC(C)(N)C(=O)O
Molecular target: human CCR10 (human) (UniProt P46092)
Experiment: cell-based or functional assay

Sequence of human CCR10 (human) (P46092 whole entry): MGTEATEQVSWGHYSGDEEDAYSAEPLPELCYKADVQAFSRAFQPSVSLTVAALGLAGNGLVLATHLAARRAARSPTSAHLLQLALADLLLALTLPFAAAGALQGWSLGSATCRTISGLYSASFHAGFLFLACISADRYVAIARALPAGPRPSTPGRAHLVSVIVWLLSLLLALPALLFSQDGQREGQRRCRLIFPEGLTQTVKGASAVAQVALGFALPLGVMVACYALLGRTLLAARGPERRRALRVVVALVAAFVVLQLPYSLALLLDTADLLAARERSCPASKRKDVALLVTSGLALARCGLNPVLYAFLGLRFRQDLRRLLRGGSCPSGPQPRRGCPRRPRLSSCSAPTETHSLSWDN

Row | Substance | IC50 (nM) Calcium Flux Assay [nM] | IC50 (nM) Chemotaxis Assay [nM]
1 | cyclo(-Tyr(4MeOCOBn)-Cyp-Trp-Dab-^DPro-Oic-) (peptide) | 16.7 | 2.3
2 | cyclo(-Trp-Cyp-Trp-Dap(CONH2)-^DPro-Oic-) (peptide) | 20 | 4.7
3 | cyclo(-Trp(6Cl)-Cyp-Trp-Ser-^DPro-Oic-) (peptide) | 6.3 | 5
4 | cyclo(-Trp-Cyp-Trp-Dab-^DPro-Oic-) (peptide) | 123 | 29
5 | cyclo(-Trp-Ac7c-Trp-Dab-^DPro-Oic-) (peptide) | 393 | 7.2
6 | cyclo(-Trp-Cyp-Phe(4Cl)-Ser-^DPro-Oic-) (peptide) | 6.1 | 2.7
7 | cyclo(-Trp(6Cl)-Cyp-Trp-Dab-^DPro-Hyp(Bn)-) (peptide) | 8.5 | 8.6
8 | cyclo(-Trp-^DLAtc-Trp-Dab-^DPro-Oic-) (peptide) | 608 | –
9 | cyclo(-Phe(4CF3)-Cyp-Trp-3Pal-^DPic-Oic-) (peptide) | 63.2 | 2.7
10 | cyclo(-Cha-Cyp-Trp-Dab-^DPro-Oic-) (peptide) | 243 | –
11 | cyclo(-Trp-Cyp-Trp-Dab(Ac)-^DPro-Oic-) (peptide) | 30.3 | 4.8
12 | cyclo(-Trp-Cyp-Trp-Met(O2)-^DPro-Oic-) (peptide) | 4.8 | 1.2
13 | cyclo(-Trp-Chx-Trp-Dab-^DPro-Oic-) (peptide) | 333 | 3.1
14 | cyclo(-Phe(4CN)-Cyp-Trp-Ser-^DPip-Hyp(Bn)-) (peptide) | 0.5 | 1.8
15 | cyclo(-Trp-4,4-AC-ThioTHP-Trp-Dab-^DPro-Oic-) (peptide) | 823 | 21.9
16 | cyclo(-Trp-Cyp-Trp-Ser-^DPro-Oic-) (peptide) | 61.6 | 1.4
17 | cyclo(-Trp-Cyp-Trp-Dab-^DPro-Pro((4S)F)-) (peptide) | 860 | 42
18 | cyclo(-Trp-Cyp-Trp-Dab-^DPro-Hyp-) (peptide) | 190 | –

Row | Substance | IC50 (nM) Calcium Flux Assay [nM] | IC50 (nM) Chemotaxis Assay [nM]
19 | cyclo(-Tyr(Ph)-Cyp-Trp-Dab-^DPro-Oic-) (peptide) | 1.1 | 1.7
20 | cyclo(-Trp-Cyp-Trp-Dap((MeO(CH2)2)2)-^DPro-Oic-) (peptide) | 399 | 15.2
21 | cyclo(-Trp-Cyp-Trp-Thr-^DPro-Oic-) (peptide) | 20.4 | 5.4
22 | cyclo(-Trp-Cyp-Trp-Dab-^DPro-Thz-) (peptide) | 134 | 19.6
23 | cyclo(-Trp-Cyp-2Nal-Gln-^DPro-Oic-) (peptide) | 35.3 | –
24 | cyclo(-Trp-Cyp-Trp-Dab((MeO(CH2)2)(Me)NCO)-^DPro-Oic-) (peptide) | 8.1 | 5.6
25 | cyclo(-Trp-Cyp-Trp-Dab(MeSO2)-^DPro-Oic-) (peptide) | 0.2 | 3.4
26 | cyclo(-Trp-Cyp-Trp-Ala(Ppz)-^DPro-Oic-) (peptide) | 1060 | 16.4
27 | cyclo(-Trp-Cyp-Trp-Dap-^DPro-Oic-) (peptide) | 52.7 | –
28 | cyclo(-Trp-Cyp-Trp-Lys(Me)-^DPro-Oic-) (peptide) | – | 4.4
29 | cyclo(-Phe(4CN)-Cyp-Trp-Gln-^DPro-Hyp(Bn)-) (peptide) | 21.7 | –
30 | cyclo(-Phe(4CN)-Cyp-Phe(4F)-Ser-^DPro-Hyp(Bn)-) (peptide) | 1.9 | 13.5
31 | cyclo(-Trp-Cyp-Trp-Dab(morphCO)-^DPro-Oic-) (peptide) | 3 | 11.1
32 | cyclo(-Trp-Cyp-Ala(2Quin)-Dab-^DPro-Oic-) (peptide) | 283 | 30.3
33 | cyclo(-Trp-Cyp-Trp-Dab-^DPro-Pro((4R)3CNBn)-) (peptide) | 27.9 | 3.8
34 | cyclo(-Trp-Cyp-Trp-Dab-^DPro-Hyp(CONHPh)-) (peptide) | 150 | 184
35 | cyclo(-Trp-Cyp-Trp-Arg-^DPro-Thz-) (peptide) | 70.6 | –
36 | cyclo(-Trp-Cyp-Trp-Dab-^DPip-Oic-) (peptide) | 26 | 17

More lines, now with the values ahead:

Row | IC50 (nM) Calcium Flux Assay [nM] | IC50 (nM) Chemotaxis Assay [nM] | Substance
37 | 58.1 | 13.4 | cyclo(-Phe(4CF3)-Cyp-Trp-Dab-^DPro-Oic-) (peptide)
38 | 78.5 | – | cyclo(-Trp-Cyp-Trp-Arg-^DPro-Tic(7OH)-) (peptide)
39 | 567 | 50.2 | cyclo(-Trp-Cyp-Trp-Dab(Dab)-^DPro-Oic-) (peptide)
40 | 54.9 | 8.7 | cyclo(-Trp-Cyp-Trp-hCys-^DPro-Oic-) (peptide)
41 | 214 | 3.8 | cyclo(-Trp-Cyp-Tyr(Me)-Dab-^DPro-Oic-) (peptide)
42 | 39.9 | – | cyclo(-Trp-Cyp-Phe(4Cl)-Dab-^DPro-Hyp(Bn)-) (peptide)
43 | 25.1 | 1 | cyclo(-Trp-Cyp-Trp-Gln(iPr)-^DPro-Oic-) (peptide)
44 | 6.9 | 9.6 | cyclo(-Trp-Cyp-Trp-Ser-^DPip-Oic-) (peptide)
45 | 260 | 60.1 | cyclo(-Trp-Cyp-Trp-Dab-^DPro-(4S)-Hyp(Bn)-) (peptide)
46 | 220 | 18.9 | cyclo(-Bbta-Cyp-Trp-Dab-^DPro-Oic-) (peptide)
47 | 22.6 | – | cyclo(-Phe(4CF3)-Cyp-Trp-Dab-^DPro-Hyp(4BrBn)-) (peptide)
48 | 262 | 17.8 | cyclo(-Trp-Chx(4-oxo)-Trp-Dab-^DPro-Oic-) (peptide)
49 | 8.8 | 12 | cyclo(-Trp-Cyp-Phe(4F)-Ser-^DPro-Oic-) (peptide)
50 | 132 | – | cyclo(-Trp-Cyp-Ala(2Furyl)-Dab-^DPro-Oic-) (peptide)
51 | 181 | 5.3 | cyclo(-Phe(4CN)-Cyp-Trp-Dab-^DPro-Hyp(Bn)-) (peptide)
52 | 9.2 | 2 | cyclo(-2Nal-Cyp-Trp-Gln-^DPro-Tic-) (peptide)
53 | 43.2 | 9.7 | cyclo(-2Nal-Cyp-Trp-Dab-^DPip-Pip-) (peptide)
54 | 11.6 | 2.5 | cyclo(-Trp-Cyp-Trp-Dab-^DPro-Hyp(4BrBn)-) (peptide)
55 | 70.5 | – | cyclo(-Trp-Cyp-2Nal-Dab-^DPip-Oic-) (peptide)
56 | 127 | 50.7 | cyclo(-Trp-Cyp-Trp-Dab-^DPro-Hyp(3CNBn)-) (peptide)

Row | IC50 (nM) Calcium Flux Assay [nM] | IC50 (nM) Chemotaxis Assay [nM] | Substance
57 | 12 | 1.8 | cyclo(-Trp-Cyp-Trp-hSer(Me)-^DPro-Oic-) (peptide)
58 | 48.9 | 143 | cyclo(-Trp-Cyp-Trp-Dab-^DPro-Hyp(4CNBn)-) (peptide)
59 | 46.4 | 10.1 | cyclo(-Trp-Cyp-Trp-Ser(Me)-^DPro-Oic-) (peptide)
60 | 24.2 | 5.3 | cyclo(-Trp-Cyp-Trp-Dab(MeO(CH2)2NHCO)-^DPro-Oic-) (peptide)
61 | 14.8 | 22 | cyclo(-Phe(4CF3)-Cyp-Trp-Dab-^DPip-Pro((4R)Ph)-) (peptide)
62 | 15.8 | 9 | cyclo(-Trp-Cyp-Trp-Dab-^DPro-Pro((4R)4BrBn)-) (peptide)
63 | 516 | 13 | cyclo(-hTyr-Cyp-Trp-Dab-^DPro-Oic-) (peptide)
64 | 107 | 5.9 | cyclo(-Trp-Cyp-Trp-Lys(4Oxa)-^DPro-Oic-) (peptide)
65 | 8.1 | 1.8 | cyclo(-Bip-Cyp-Trp-Dab-^DPro-Oic-) (peptide)
66 | 200 | 21.6 | cyclo(W[Aib]W[Dab][dP][Tic])
67 | 214 | 109 | cyclo(-Trp(5OH)-Cyp-Trp-Arg-^DPro-Thz(5,5Me2)-) (peptide)
68 | 56.8 | 6.9 | cyclo(-Trp-Cyp-Trp-Dap(MeO(CH2)2)-^DPro-Oic-) (peptide)
69 | 706 | 257 | cyclo(-Trp-Ac8c-Trp-Dab-^DPro-Oic-) (peptide)
70 | 80.3 | – | cyclo(-Phe(4CN)-Cyp-Trp-Ser-^DPro-Oic-) (peptide)
71 | 58.6 | 38.7 | cyclo(-Trp-Cyp-Phe(4CF3)-Dab-^DPro-Oic-) (peptide)
72 | 144 | 3.1 | cyclo(-Trp(5OH)-Cyp-Trp-Gln-^DPro-Thz-) (peptide)
73 | 49.5 | 8.8 | cyclo(-Trp-Cyp-Trp-Lys(Nic)-^DPro-Oic-) (peptide)
74 | 62.8 | 11.5 | cyclo(-Trp-Cyp-Trp-Dab(MEMCO)-^DPro-Oic-) (peptide)
75 | 40.4 | 4.2 | cyclo(-OctG-Cyp-Trp-Dab-^DPro-Oic-) (peptide)
76 | 120 | – | cyclo(-Trp-Cyp-Phe(4F)-Dab-^DPro-Oic-) (peptide)
